B1: HIF1α-MAP-1 (protein)
chain: MRGSHHHHHHGSACELAATATATATATATAACGDLAPQMLRELQETNAALQDVRELLRQQVKEITFLKNTLLEIWKAAKEAAKEAAAKIEEQAKTFLDKFNGEELLRALDQVN
B2: H-MAP-2 (protein)
chain: MRGSPKKKRKVGGGGSHHHHHHHHGSACELAATATATATATATAACGDLAPQMLRELQETNAALQDVRELLRQQVKEITFLKNTLLEIWKAAKEAAKEAAAKIEEQAKTFLDKFNGEELLRALDQVN

Columns and labels:
[1] = biological target: p300; assay: ELISA binding to p300, total binding kinetics; conditions: for Kd: ELISA, average of three independent trials
From the text: FIG. 21. H-MAP1 (H-MAP) and H-MAP2 ELISA fitted with total binding kinetics using Prism 7 (GraphPad) with calculated binding affinities as an average of three independent trials.

[2] = tested on: HIF1α; assay: Hypoxia-inducible luciferase reporter in MDA-MB-231 cells; assay type: cell-based; conditions: MDA-MB-231-Luciferase cells, hypoxia induced with 100 μM CoCl2, increasing concentrations
From the text: FIG. 22. […] Results are normalized to maximum luciferase intensity of two independent trials.
We will further characterize the HIF1α-MAP1 and iterative HIF1α-MAP designs as described in the following section. For example, to increase the likelihood of translocation to the nucleus, HIF1α-MAP-2 (H-MAP-2) was designed by addition of nuclear localization sequence, PKKKRKV (SEQ ID NO:7), at the N-terminus. […] To test the ability of HIF1α-MAPs to modulate hypoxia-inducible signaling, HIF1α-MAP-2 was incubated with triple negative breast cancer cell line, MDA-MB-231, stably transfected a construct to express firefly luciferase under normoxic and hypoxic (induced with final concentration 100 μM CoCl2) conditions.

Row | Molecule | Kd [1] [nM] | fold improvement in comparison to native HIF1α ([1]; binding to p300) [fold] | expression of luciferase (hypoxia-inducible gene expression) [2] | expression of luciferase (hypoxia-inducible gene expression) ([2]; listed as HIF1α-MAP-2)
1 | native HIF1α [reference compound] | 0.38 |  |  | 
2 | B1 | 0.00808 | 47 |  | 
3 | B2 | 0.0382 |  | inhibitions of HIF1α | decreased expression of luciferase

Source: patent US11892449B2, “Therapeutics and point of care lateral-flow test for virus and antibodies using tagged assembled proteins” (priority 2021, dated 2024)
